Measurements published in article PMC9352346.

Experiments:
[1] = target: T1, GST-Smad4, Q13485; assay: GST pull-down, immunoblot band quantification; settings: chain shown with the change; HEK293T cell lysate; n=3; read off a plot
T1 chain: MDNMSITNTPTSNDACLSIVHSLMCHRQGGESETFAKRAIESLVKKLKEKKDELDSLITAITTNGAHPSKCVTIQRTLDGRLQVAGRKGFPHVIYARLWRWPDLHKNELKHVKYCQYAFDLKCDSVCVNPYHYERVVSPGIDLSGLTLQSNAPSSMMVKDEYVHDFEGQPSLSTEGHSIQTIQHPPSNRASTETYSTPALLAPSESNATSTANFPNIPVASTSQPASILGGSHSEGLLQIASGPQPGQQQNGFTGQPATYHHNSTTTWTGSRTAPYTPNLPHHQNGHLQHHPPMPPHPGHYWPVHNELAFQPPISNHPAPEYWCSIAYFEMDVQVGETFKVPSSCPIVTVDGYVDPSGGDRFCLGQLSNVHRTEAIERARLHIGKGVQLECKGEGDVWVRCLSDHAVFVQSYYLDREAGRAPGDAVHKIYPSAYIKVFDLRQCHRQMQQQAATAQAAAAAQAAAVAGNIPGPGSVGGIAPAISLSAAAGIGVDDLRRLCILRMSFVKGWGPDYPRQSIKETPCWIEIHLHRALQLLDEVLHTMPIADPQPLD

[2] = target: T2, GST-Smad4-MH2, Q13485; assay: GST pull-down, immunoblot band quantification; settings: chain shown with the change; HEK293T cell lysate; n=3; read off a plot
T2 chain: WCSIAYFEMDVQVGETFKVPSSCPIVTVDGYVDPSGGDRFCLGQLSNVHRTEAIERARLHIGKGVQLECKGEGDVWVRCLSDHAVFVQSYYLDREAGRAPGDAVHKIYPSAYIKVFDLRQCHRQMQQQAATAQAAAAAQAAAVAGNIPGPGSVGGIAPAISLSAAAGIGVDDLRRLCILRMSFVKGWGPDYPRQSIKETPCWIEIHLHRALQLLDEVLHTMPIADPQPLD

- other: relative amount of Arl15-AL-GFP pulled down [1]: 1
- other: relative amount of Arl15-AL-GFP pulled down [2]: 0.55
B1: Arl15-WT-GFP A86L (protein)
chain: MSDLRITEAFLYMDYLCFRALCCKGPPPARPEYDLVCIGLTGSGKTSLLSKLCSESPDNVVSTTGFSIKAVPFQNAILNVKELGGLDNIRKYWSRYYQGSQGVIFVLDSASSEDDLEAARNELHSALQHPQLCTLPFLILANHQDKPAARSVQEIKKYFELEPLARGKRWILQPCSLDDMDALKDSFSQLINLLEEKDHEAVRM
